Reference: US20140227291A1

Tests used:
[1] = target: platelet factor 4 (PF-4) in Cynomolgus monkey plasma (Cynomolgus (Macaca fascicularis)); assay: sandwich-ELISA, antibody coated at 10 µg/ml, cynomolgus plasma dilutions 1:3.16 to 1:3160, OD450 against log dilution
[2] = target: human platelet factor 4 (PF-4) in HPF4-spiked human plasma (human) (UniProt P02776); assay: sandwich-ELISA, antibody coated at 10 µg/ml, HPF4-spiked human plasma dilutions 1:3.16 to 1:3160, OD450 against log dilution
[3] = target: human platelet factor 4 (PF-4) in HPF4-spiked human plasma (human) (UniProt P02776); assay: aligned sandwich-ELISA, antibody 10 to 10000 ng/ml captured by anti-mouse IgG (Fc), HPF4-spiked human plasma 1:10, OD450 against log concentration
[4] = target: platelet factor 4 (PF-4) in Cynomolgus monkey plasma (Cynomolgus (Macaca fascicularis)); assay: aligned sandwich-ELISA, antibody 10 to 10000 ng/ml captured by anti-mouse IgG (Fc), cynomolgus plasma 1:100, OD450 against log concentration
[5] = target: human platelet factor 4 (PF-4) in HPF4-spiked human plasma (human) (UniProt P02776); assay: aligned sandwich-ELISA: antibody dilution series captured by coated anti-mouse IgG (Fc), HPF4-spiked human plasma 1:10, bound PF-4 detected with rabbit anti-HPF4 and anti-rabbit-POD
[6] = target: platelet factor 4 (PF-4) in Cynomolgus monkey plasma (Cynomolgus (Macaca fascicularis)); assay: sandwich-ELISA with cynomolgus plasma; reference antibody
[7] = target: platelet factor 4 (PF-4) in Cynomolgus monkey plasma (Cynomolgus (Macaca fascicularis)); assay: aligned sandwich-ELISA: antibody dilution series captured by coated anti-mouse IgG (Fc), cynomolgus plasma 1:100, bound PF-4 detected with rabbit anti-HPF4 and anti-rabbit-POD
[8] = target: human platelet factor 4 (PF-4) in HPF4-spiked human plasma (human) (UniProt P02776); assay: sandwich-ELISA with HPF4-spiked human plasma; reference antibody
[9] = target: platelet factor 4 (PF-4) in Cynomolgus monkey plasma (Cynomolgus (Macaca fascicularis)); assay: aligned sandwich-ELISA with cynomolgus plasma; reference antibody
[10] = target: human platelet factor 4 (PF-4) in HPF4-spiked human plasma (human) (UniProt P02776); assay: aligned sandwich-ELISA with HPF4-spiked human plasma; reference antibody
[11] = target: Abeta(1-40) monomer in 0.1% NaOH (human); assay: dot blot, antigen dilution series on nitrocellulose, antibody 0.2 µg/ml, densitometry
Sequence of Abeta(1-40) monomer in 0.1% NaOH (human) (peptide, as listed by the source): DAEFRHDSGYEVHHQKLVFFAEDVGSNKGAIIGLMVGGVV

[12] = target: Abeta(1-42) monomer in 0.1% NaOH (human); assay: as above
Sequence of Abeta(1-42) monomer in 0.1% NaOH (human) (peptide, as listed by the source): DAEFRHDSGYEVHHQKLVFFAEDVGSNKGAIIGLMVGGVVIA

[13] = target: Abeta(1-40) monomer in 0.1% NH4OH (human); assay: as above
[14] = target: Abeta(1-42) monomer in 0.1% NH4OH (human); assay: as above
[15] = target: Abeta(1-42) globulomer (human) (UniProt P05067); assay: as above
[16] = target: Abeta(1-42) fibril preparation (human) (UniProt P05067); assay: as above

Sequence of platelet factor 4 (PF-4) in Cynomolgus monkey plasma (Cynomolgus (Macaca fascicularis)) (chain, as listed by the source): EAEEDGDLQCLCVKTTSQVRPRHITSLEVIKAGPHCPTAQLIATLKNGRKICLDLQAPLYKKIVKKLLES
Sequence of human platelet factor 4 (PF-4) in HPF4-spiked human plasma (human) (P02776 32-101): as the sequence (chain, as listed by the source) above, with V64I counted along it

Row | Substance | Area Under Curve [1] | Area Under Curve [2] | Area Under Curve [3] | Area Under Curve [4] | EC50 (read off the curve) [5] [µg/mL] | Ratio HPF4/aAbeta antibody (AUC of anti-HPF4 over AUC of this antibody) [6] | EC50 (read off the curve) [7] [µg/mL] | Ratio HPF4/aAbeta antibody (AUC of anti-HPF4 over AUC of this antibody) [8] | Ratio HPF4/aAbeta antibody (AUC of anti-HPF4 over AUC of this antibody) [9] | Ratio HPF4/aAbeta antibody (AUC of anti-HPF4 over AUC of this antibody) [10] | dot blot ratio (recognition of Abeta(20-42) globulomer relative to this Abeta form) [11] | dot blot ratio (recognition of Abeta(20-42) globulomer relative to this Abeta form) [12] | dot blot ratio (recognition of Abeta(20-42) globulomer relative to this Abeta form) [13] | dot blot ratio (recognition of Abeta(20-42) globulomer relative to this Abeta form) [14] | dot blot ratio (recognition of Abeta(20-42) globulomer relative to this Abeta form) [15] | dot blot ratio (recognition of Abeta(20-42) globulomer relative to this Abeta form) [16]
1 | Monoclonal antibody clone mIgG2a (negative control) | 0.005 | 0.006 | 0.033 | 0.015 | – | – | – | – | – | – | – | – | – | – | – | –
2 | Anti-HPF4 monoclonal antibody (Abcam Cat. No. ab49735) | 2.68 | 1.99 | 3.84 | 4.78 | 0.07 | 1 | 0.05 | 1 | 1 | 1 | – | – | – | – | – | –
3 | Anti-Abeta monoclonal antibody clone 6E10 (Covance cat. no. SIG-39320) | – | – | – | – | – | – | – | – | – | – | 20 | 10 | 3 | 10 | 0.09 | 29
